The record followed here is patent US20160017295A1.

Experiment in all cases: cell-based or functional assay
For assay [1], the target named is SM 100-10 variant AAV capsid (Adeno-associated virus 2 (isolate Srivastava/1982) (AAV-2)) (UniProt P03135).
Assay [2] has as its target SM 100-3 variant AAV capsid (Adeno-associated virus 2 (isolate Srivastava/1982) (AAV-2)) (UniProt P03135).
Assay [3] has as its target SM 10-8 variant AAV capsid (Adeno-associated virus 2 (isolate Srivastava/1982) (AAV-2)) (UniProt P03135).
Assay [4] deals with variant γ4.3 (AAV2 capsid with N312K, N449D, N551S, I698V) (AAV2 (adeno-associated virus type 2)) (UniProt P03135).
Assay [5] concerns the target wild-type AAV2 capsid (recombinant AAV-GFP vector) (AAV2 (adeno-associated virus type 2)) (UniProt P03135).
In assay [6] the target is SM 10-2 variant AAV capsid (Adeno-associated virus 2 (isolate Srivastava/1982) (AAV-2)) (UniProt P03135).
Assay [7] concerns the target Variant 1.45 (AAV2 capsid with N312K, N449D) (AAV2 (adeno-associated virus type 2)) (UniProt P03135).
In assay [8] the target is wild-type AAV8 capsid (recombinant AAV-GFP vector) (AAV8 (adeno-associated virus type 8)).
Assay [9] deals with wild-type AAV1 capsid (recombinant AAV-GFP vector) (AAV1 (adeno-associated virus type 1)).

Take “human IVIG (Gamimune N, 10% Human IVIG, Bayer)”: the Fold Resistance Relative to AAV2 worked out at 4.39 fold in [1]; 4.94 fold in [2]; 3.41 fold in [3]; 1 fold in assay [5]; 7.52 fold in assay [6]; 6.11 fold in assay [8]. For the same substance, the Fold Resistance Relative to AAV2 in assay [9] worked out at 1.76 fold. The Neutralizing IVIG concentration mg/ml (reduces gene delivery efficiency to 50%) in assay [1] was determined as 0.066 mg/mL; in assay [2] it was 0.074 mg/mL; in assay [3], 0.051 mg/mL; in assay [5], 0.015 mg/mL; in assay [6], 0.113 mg/mL; in assay [8], 0.092 mg/mL. The Neutralizing IVIG concentration mg/ml (reduces gene delivery efficiency to 50%) in [9] was 0.026 mg/mL. In addition, the enhanced resistance to IVIg compared to wild-type AAV2 in [4] is 3.1 fold; in assay [7], 1.23 fold.
